The assay deals with T1, recombinant HIV-1HXB2 gp41 (Vybion Inc.) (HIV-1 HXB2, UniProt P04578 541-682).
T1 construct: domain: gp41; Bought reagent; also called rgp41
The assay can be described thus: ELISA, plate-bound recombinant HIV-1HXB2 gp41, serial dilutions of rCNID-1-Trx, detection with rabbit anti-CNID-1. For orientation: An ELISA detects its analyte on a solid surface through an enzyme-linked reagent.

B1: recombinant CNID-1 in fusion with thioredoxin (thioredoxin-hexahistidine-CNID-1) (other)
chain: GRATLGQLKTSTIPPVTFDVPFDGANIPQDVRFTIATVNGGKGALYNAELGESAGHTIVLESDGDHPIPGTFDPKSGRGLDYLPRGLVLFSSHNYVGNMKMYTEPDSDITADFPPGTPFGVSSAITGEGSAFQLNTGIDHTGEFEIIPPNTKRNLAGVFDNEIRSVSPTGGK
modifications: Europium label in the reference-protein ELISA only; otherwise none stated
notes: The N-terminal residue of native CNID-1 is sarcosine; also called rCNID-1-Trx; CNID-1-Trx; not shown: N-terminal thioredoxin (Trx) encoded by the Novagen pET32b(+) Trx fusion vector
Regarding B1, the binding result is “no binding”.

(Values after patent US20160333060A1 (UNITED STATES OF AMERICA AS REPRESENTED BY THE SECRETARY …, published 2016).)
